Results published in patent US20120164161A1 (AFFITECH RESEARCH, published 2012).

T1: human CC chemokine receptor 4 (CCR4) (human, UniProt P51679 1-360)
T1 sequence (looked up): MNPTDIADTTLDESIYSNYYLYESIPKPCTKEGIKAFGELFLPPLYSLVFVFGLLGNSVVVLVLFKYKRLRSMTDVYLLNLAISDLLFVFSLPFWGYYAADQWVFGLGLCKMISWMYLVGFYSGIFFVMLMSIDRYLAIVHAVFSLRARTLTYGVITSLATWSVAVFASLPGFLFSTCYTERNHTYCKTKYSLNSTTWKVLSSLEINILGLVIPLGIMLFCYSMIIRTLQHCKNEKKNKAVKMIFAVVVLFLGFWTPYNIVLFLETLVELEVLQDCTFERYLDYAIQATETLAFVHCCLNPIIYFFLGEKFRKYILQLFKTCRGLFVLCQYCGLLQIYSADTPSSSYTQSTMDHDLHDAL


Assays:
[1] = molecular target: T1, human CC chemokine receptor 4 (CCR4); assay: cell-based or functional assay
[2] = molecular target: T1, human CC chemokine receptor 4 (CCR4); assay: cell-based or functional assay; remark: listed apart in the source
[3] = molecular target: T1, human CC chemokine receptor 4 (CCR4); assay: competition in flow cytometry on CCRF-CEM cells: scFv titrated against 50 nM Alexa647-labelled MDC-SNAP; remaining MDC-SNAP signal (Alexa 647)
Procedure: To determine whether the anti-CCR4 antibodies from Example 1 interfere with the binding of CCR4 ligands to the receptor, competition experiments were performed. […] The SNAP-tag is derived from the 20 kDa DNA repair protein 06-alkylguanine-DNA alkyltransferase.
The CCR4+ CCRF-CEM-cells were harvested from culture flasks, washed 2 times with RPMI-1640 culture medium and aliquot 1×10^5 cells per well into V-shaped 96-well plates (Greiner Bio-One, Frickenhausen, Germany). Cells were centrifuged at 500×g for 5 minutes and the supernatant was aspirated.

Row | Binder | IC50 of inhibition of TARC-mediated Ca-Flux in CCRF-CEM cells [1] [pM] | IC50 (read off the curve) [3] [pM] | also measured
1 | 601 scFv (scFv, not shown: small tags and cut ends) scFv: QVQLVQSGAEVKKPGSSVKVSCKASGGTFSSYAMSWVRQAPGQGLEWMGGIIPIFGTVNYAQKFQGRVTMTRDTSTSTVYMELSSLRSDDTAVYYCARRRGAKFDYWGQGTLVTVSSKLSGSASAPKLEEGEFSEARVSYVLTQQPSASGTPGQSVTISCSGSTSNIGSHYVVWYQQLPGTAPRLLIYRNHQRPSGVPDRLSGSKSGTSASLAIGGLRSEDEADYYCAVWDDTLSGWVFGGGTKLTV | 3 | – | –
2 | KW0761 IgG (antibody, V domains shown) VH: EVQLVESGGDLVQPGRSLRLSCAASGFIFSNYGMSWVRQAPGKGLEWVATISSASTYSYYPDSVKGRFTISRDNAKNSLYLQMNSLRVEDTALYYCGRHSDGNFAFGYWGQGTLVTVSS VL: DVLMTQSPLSLPVTPGEPASISCRSSRNIVHINGDTYLEWYLQKPGQSPQLLIYKVSNRFSGVPDRFSGSGSGTDFTLKISRVEAEDVGVYYCFQGSLLPWTFGQGTKVEIK | – | – | ADCC on CCRF-CEM cells with human PBMCs, EC50 [2]: 315 pM; ADCC on CCRF-CEM cells, Max. Killing (%; nM IgG) [2]: 69.8 % (at 1.4 nM IgG); ADCC on L-428 cells with human PBMCs, EC50 [2]: 57 pM; ADCC on L-428 cells, Max. Killing (%; nM IgG) [2]: 84 % (at 7 nM IgG)
3 | 208 scFv (scFv, not shown: small tags and cut ends) scFv: QVQLVQSGAEVKKPGSSVKVSCKASGGTFSSYAMSWVRQAPGQGLEWMGGIIPIFGTVNYAQKFQGRVTMTRDTSTSTVYMELSSLRSDDTAVYYCARRGGSYFDYWGQGTLVTVSSKLSGSASAPKLEEGEFSEARVSYVLTQPPSASGTPGQSVTISCSGSTSNIGSHYVFWYQQLPGTAPRLLIYRNHQRPSGVPDRLSGSKSGTSASLAISGLRSEDEADYYCAVWDAKYRGWVFGGGTKLTVL | 1.9 | – | –
4 | 503 scFv (scFv, not shown: small tags and cut ends, Expressed in TG1 bacteria) scFv: QVQLVQSGAEVKKPGSSVKVSCKASEGTFSSYAMSWVRQAPGQGLEWMGGIIPIFGTVNYAQKFQGRVTMTRDTSTSTVYMELSSLRSDDTAVYYCARRRGAKFDYWGQGTLVTVSSKLSGSASAPKLEEGEFSEARVSYVLTQPPSASGTPGQSVTISCSGSTSNIGSHYVVWYQQLPGTAPRLLIYRNHQRPSGVPDRLSGSKSGTSASLAIGGLRSEDEADYYCAVWDDTLSGWVFGGGTKLTVL | 1.2 | ~300 | –
5 | 306 scFv (scFv, not shown: small tags and cut ends) scFv: QVQLVQSGAEVKKPGSSVKVSCKASGGTFSSYAMSWVRQAPGQGLEWMGGIIPIFGTVNYAQKFQGRVTMTRDTSTSTVYMELSSLRPDDTAVYYCARRGGSYFDYWGQGTLVTVSSKLSGSASAPKLEEGEFSEARVSYVLTQPPSASGTPGQSVTISCSGSTSNIGSHYVSWYQQLPGTAPRLLIYRNHQRPSGVPDRLSGSKSGTSASLAISGLRSEDEADYYCAVWDAKYRGWVFGGGTKLTVL | 1.2 | – | –
6 | 308 scFv (scFv, not shown: small tags and cut ends) scFv: QVQLVQSGAEVKKPGSSVKVSCKASGGTFSSYAMSWVRQAPGQGLEWMGGIIPIFGTVNYAQKFQGRVTMTRDTSTSTVYMELSSLRPDDTAVYYCARRGGSYFDYWGQGTLVTVSSKLSGSASAPKLEEGEFSEARVSYVLTQPPSASGTPGQSVTISCSGSTSNIGSHYVFWYQQLPGTAPRLLIYRNHQRPSGVPDRLSGSKSGTSASLAISGLRSEDEADYYCAVWDAKYRGWVFGGGTKLTVL | 3 | – | –
7 | 501 scFv (scFv, not shown: small tags and cut ends, Expressed in TG1 bacteria; also called scFv 501; antibody 501 (single chain form)) scFv: QVQLVQSGAEVKKPGSSVKVSCKASEGTFSSYAMSWVRQAPGQGLEWMGGIIPIFGTVNYAQKFQGRVTMTRDTSTSTVYMELSSLRSDDTAVYYCARRRGAKFDYWGQGTLVTVSSKLSGSASAPKLEEGEFSEARVSYVLTQQPSASGTPGQSVTISCSGSTSNIGSHYVVWYQQLPGTAPRLLIYRNHQRPSGVPDRLSGSKSGTSASLAIGGLRSEDEADYYCAVWDDTLSGWVFGGGTKLTVL | 1 | ~300 | –
8 | 406 scFv (scFv, not shown: small tags and cut ends, Expressed in TG1 bacteria) scFv: QVQLVQSGAEVKKPGSSVKVSCKASEGTFSSYAMSWVRQAPGQGLEWMGGIIPIFGTVNYAQKFQGRVTMTRDTSTSTVYMELSSLRSDDTAVYYCARRGGSYFDYWGQGTLVTVSSKLSGSASAPKLEEGEFSEARVSYVLTQPPSASGTPGQSVTISCSGSTSNIGSHYVSWYQQLPGTAPRLLIYRNHQRPSGVPDRLSGSKSGTSASLAISGLRSEDEADYYCAVWDAKYRGWVFGGGTKLTVL | 1 | ~100 | –
9 | 803 scFv (scFv, not shown: small tags and cut ends, Expressed in TG1 bacteria; also called scFv 803; antibody 803 (single chain form)) scFv: QVQLVQSGAEVKKPGSSVKVSCKASGGTFSSYAISWVRQAPGQGLEWMGGIIPIFGTANYAQKFQGRVTMTRDTSTSTVYMELSSLRSEDTAVYYCARRRGAKFDYWGQGTLVTVSSKLSGSASAPKLEEGEFSEARVSYVLTQPPSASGTPGQSVTISCSGSTSNIGSHYVVWYQQLPGTAPRLLIYRNHQRPSGVPDRLSGSKSGTSASLAIGGLRSEDEADYYCAVWDDTLSGWVFGGGTKLTVL | 10 | ~200 | –
